For 2 substances, stoichiometry N results are on record in publication PMC6003364.

Test [1] has as its target N-terminally His-tagged, full-length TraE (VirB8 homolog) from plasmid pKM101 (plasmid pKM101). The test is described as follows: negative-stain EM.
In test [2] the target is periplasmic domain of TraE (plasmid pKM101). The test is described as follows: cross-linking.

What is called stoichiometry N is the number of molecules, sites or subunits per partner or assembly. The substance “N-terminally His-tagged, full-length TraE (VirB8 homolog) from plasmid pKM101 (natural protein)” yielded a stoichiometry N in test [1] of 6.
In turn, “periplasmic domain of TraE (domain or fragment)” had a stoichiometry N in test [2] of 2.
